Measured values from US7819908B2, “Compositions and methods for reducing lung volume” (Aeris Therapeutics, Inc., priority 2002, dated 2010).

System: sheep
Assay: Papain-induced emphysema in sheep: lung physiology, plethysmography, CT
Assay type: in vivo
Description: We examined the safety and utility of trypsin preconditioning for BVR in a group of seven sheep with emphysema generated by prior exposure to papain inhalation. This large animal model of emphysema is one with which we have extensive prior experience.

[1] = papain-induced emphysema, Campbell diagram

B1: papain: enzyme given by inhalation or instilled bronchoscopically to sheep to generate the emphysema model (protein, UniProt P00784 134-345, looked up)
Papain: IPEYVDWRQKGAVTPVKNQGSCGSCWAFSAVVTIEGIIKIRTGNLNEYSEQELLDCDRRSYGCNGGYPWSALQLVAQYGIHYRNTYPYEGVQRYCRSREKGPYAAKTDGVRQVQPYNEGALLYSIANQPVSVVLEAAGKDFQLYRGGIFVGPCGNKVDHAVAAVGYGPNYILIKNSWGTGWGENGYIRIKRGTGNSYGVCGLYTSSFYPVKN
tissue density in Houndsfield units measured by CT scanning (2 weeks following serial papain exposure): significant decrease | recoil pressures at full inflation (after papain-induced emphysema, baseline 16.4 cm H2O): 8.9 cm H2O | change in TLC and RV [1]: significant increase | impact on active or passive chest wall mechanics [1]: no significant impact | lung volume measured by plethysmography (papain-treated vs untreated, 2 weeks after serial papain exposure): significant increase | increase in airway resistance (post-papain vs baseline): 75±16% | residual volume (RV) increased (post-papain vs baseline): 66±21% | total lung capacity (TLC) increased (post-papain vs baseline): 10±3% | vital capacity (VC) increased (post-papain vs baseline): 11±4% | increase in total lung resistance (sum of airway and tissue components) (post-papain vs baseline, normal respiratory frequencies): 40±9%
